Measurements: a protein production outcome set (Wang et al. 2014)

Assay: label from the status in PepcDB records
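Further: failed if final PepcDB status was selected cloned or expressed and not failed if soluble or beyond.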

With “MPITIGNGFLKSEILTNSPRNTKEAWWKVLWEKIKDFFFSTGKAKADRCLHEMLFADRTPTRERLTEIFFELKELACASQRDRFQVYNPNENDDTIILRIMDQNEENELLRITQNTDAFTCEVMGNAYFLIKDRPDILKPHPQMTAMINRRYSEIVDYPLPSTLCLNPAGAPTLSVPLDNIEGYLYSEWRKGNLDEWKTQEKVTYLAAKIQSGIEKTTRILQHANISESTQQSAFLETMAMCGLKQLEIPPPHTHIPIEKMVKEVLLADKTFQAFLVTDPSTSQSMLAEIVEAISDQVFHAIFRIAPQAIQKMAEEQLTTLHVRSEQQSGCLCCFL” the protein production was “failed”.

In the case of “MLFGDSVAIAFAQVSIHSRSKGHSAVAAAAYRSGARLYDDRIGRAYDFSKRDDVAFSEILLPDGTTDSFLERDYLWNEVERAENRSNSQLCKDFVLALPRELNLEQQIELAKRFARTHFVEKGLPADIAIHDHGDGNPHAHILIPTRRLENNRFSKYKARDLNPVFAKGFLVEQDYWGEQWREMQNEFFIENNLDLQVDANHLIAERHRGKHHNANAHYLLEENQLIQQARMELTRDNIDLVIDHLSTQYSVFTRRDVERLLFKTFQASDSPQEYLQFVERVLGHQDLVALGDNNKGEPSFTTRTHLMQEAQLLHDIEAMMVSKNHVVHQPIDSLAQQYRLSEEQYEAFRYITQSPDISVVIGRPGTGKSYLLKPLNEYYIQAGMEVIGAALSGKVAKALQAETGITSSTIKSLSYRLANDMMQLSDKHVLIIDEAGMVDFSSMGYLIKEAHKAGSKVVLIGDPDQLKPIQKGEIFRGIAARTGYIELENIKRQQDLGDRQASLNLAKGDIDKAIQHYQDKGAITITDTKLQAIEQVVADWKQDLESTNMADSIMLSYTRKAVNHLNDLAREALIVENKIGEENIVYQGLERSLKISTGERLLLRENNKVLGVRNGDTATVKEINVQQMKIQLDSGELLIIPKEYKALDYAYALTVHKSQGMTAKKVRVLIDSKYWDRNLSFVAMTRHKEQLNIYADKENHPTEQALKQTLSRSSTKDNVIDWPLDFAIRAGFDSDSLISRALNHIVGVGHKIKQAYNFIVNYEASLLKARHQERFQDIGQAIADAKQEALKVDTKEFESNDCKTSEQSFGILKKDFPQLVELETLIKRRQRMTGYFAEKTDKQIMALTQQLLTNKTFANQVKYQVPEFYQKLQSIDNKQKEKALLQNH”, the protein production is reported as “failed”.

For “MTEIDSNLKDAQSVAVSGHVRPDGDCVGSTLAVYNYIKDYYPDIKARLYLEPSPNIFKFMQRADEIDSSYADDTVYDLFIACDCSDTGRLGSAAKYFESAKRTLCIDHHVTNGAFADTNYIFPDASSTCELVFELLPKERITIQIAECIYTGMVHDTGVFQYSCTSKKTMDIAGSLMEMGIDYSRIIDDTFYTKTFAQNKIMGQALLNAALYLNGDVILSAVSRAEMEKYDVLPKHLDGIVNQLRVTKDIKVAVFLYENEDGTYKGSLRVNGDYDVAKVASVFGGGGHVKAAGFTIEGPLEVATDRILTAIKDNI”, the protein production was “failed”.

For “MKTLLIAWHSRTGAARQMAQALERGALAAALALEQPGQLRVRRQAASRTDAAALLAADGYLFCAPENLGSLSGAMKECFDRCYYGVLDRIQGRPYGVAISAGTDGEGAARQVERICTGWRLRAAAPPLIARSGAQTPEQIAAPKQVPADVLARCEELGGLLAATLLMGSLEHHHHHH”, the protein production was “failed”.

For “MCAEIPAMGPDLAIARAAAARWRKRAAEREQTRKTLDHQPAGHFTPVDSVDRLAKRAGRLQQWAAAIRALPPAAILGLPAAPPPTGGAADTREIDMVAPALSLRALAAERIIGETSDLLSVEFLEIGVAAARAVGLITTRGAPNGTGFLVAPDVVLTNNHVLPDVRTARASALEMDFETNRHGPRKEVQSFELDPDGFFLTDAPLDFTLVRVRPTSDGGQALSDYGFLPLIAAEGKIAVGEPLNIIQHPGGRVKQAALRNNRLLDLPPSNEADALNPDAVFHYETDTEKGSSGSPVFNDQWEVVALHHTGVPKTDASGAMIDADGRVVPDSQPERIVWIGNEGIRISRLYQYVFTFTFADPAMASVRDALIALWTDAGRPGWARTAAEAETIVHPPAALADPPPAAPAIIPLAEERGAAIAPDPADPAYARRPGFRSDFLGLPTPLPRLVDDSRGPLATFGEGVSELRYHHYSVLMNARRRLAYVAAVNIDHRAPFDVQRGTDRWFFDPRLPKRLQAGGDYYAANPLDRGHLVRRDDAAWGYTQAEAQLANDDTFHWTNCSPQHEVFNQSAKASGKGLLLWGNLENAVVDLAKATNGRLCVYNGPLFTEDDRPYRQDFFVPGAFWKLIALIDGQSRPRALAFRLSQAAQIADLPAEAFAPAELAAFTPVQIPVATLGALTGLDFGALAQWDPLAAGSDGVSKETLSPPRSIILTREADIVF”, the protein production was “failed”.

With “MLLDKIQNLIIQSDISIFQSMKKMDEEKVKLLFVFRGDCFVGILTIGDIQRAIIKQNDTSMQINNILDQNKVFAYKGESLEIIKNKMIHLRAECMPILDSKGELVDVLFWKDLFIDEVRVDDRKIDLPVVIMAGGKGTRLKPLTNVIPKPLIPIGDKTILEAILDQFESIGCSKFYMSVNYKYDILKFYLAQLDHKYDIRFFKEDKPLGTIGSVSLLKDKISTPFFVSNCDIIIDQDYRDVYDYHINNSNDLTIVTAVKRTRIPYGVIETIENGLMTELIEKPEFTYMINSGVYILQPELINEIPENELFHITHLMEKVKSRGGKIGCFPVSEKSWTDIGEWNEYLKLLGILEHHHHHH” the protein production was “failed”.

For “MHREQAPEHRDRTSEHRDRTPERRDRTPEPPGRASGPAAPAPASEPPGTDLGWLLEDLVARTDHVRQAVLLTADGLPLSASDGMRARDIEHLAAVCSGFHSLARSAGERFAAGDVRQTMVMLDDAYLFITPAGDGSRLAVLSEVQTDVGQLAHEMALLVRRVGRHMDAAVRSAVHSAGS”, the protein production was “failed”.

In the case of “MSLSNGELAILVFGYPETMANQVIAYFQEFGTILEDFEVLRKPQAMTVGLQDRQFVPIFSGNSWTKITYDNPASAVDALLENGAVFNGVLLGVIPYTKDAVERLQKRKLTSSEDIGSGITTAAAEGHHHHHH”, the protein production is reported as “not failed”.

For “MANIFIENSLLFALTQIVPLLYIVTTALYGIHFFKETPLAGSLKQPALILTVVTHVADLGLLTSTAGYRLSYSAYNLMSMVALTLAITYMFIEFTTKSDKTGFFVIAFAAGSALFSSILSSQTVDSGLAFSGLGIGVHLFAAIFGFSSVAIAGLYSGMYLVLFRQIRLNRFGLLFQRLPNLETLEMLIMHAVAFGFFFLSVTIVAGVLEQHASKEVINLFEPRLVSLFVIWALYGISLVIKPLFGWDIKHMAVLLIALFVLVTALLFIMSLVTPSFHGMSI”, the protein production was “failed”.

For “MTEQFVIIILLIALGYFLKRMNYLKATDSQVLSTLVLNVTLPSLVIVNLNSAKLDVSFSILPIMMIIYGIVAKIIVIWFFRKYDNHMRGSVGMMTGSMNIGLFAYPLVEAIWPSKGMIYFGMVDIGGAIIMFGITYFVGSYFSEGSDQFNFKFLGKKLVQSVPLVTYMIMFGLNMSHIHIWQPAIDFFSVLSKANMPLSMILLGVMLNFSIEREYLPVTIKYLCLHYGLGMLAGTLVHFLLPVSDDMIKTTLLITWLLPVGVAIIPYSIQFKYKTLPFVGMVTNLTIIISIIILYIYQAVFV”, the protein production was “failed”.

With “MPAIGSAPDGSRVSFMPKAWLLLALLLLLSLPARAEEWPALQWSQGTPASGPALQALEEYAFVPRDDESRQGIRTDALLVIRDGRLLYERYAGATGPQTPHLAWSASKSLLAVLLGVAFGEGRFQLQDPAAKFYPPLEAHPDITLADLLHWASGLDWQEDYEYAPLNSSVVAMLYTRGHRDMAAFTVQQAASGPPGQVFRYSSGDSNLLAASLRGMVGEGQYADYPWRALFEPLGITQAVWERDAAGTFVASSYLYLTARDLARIGLLMQRDGRWRDRQLLPKAWVEFCRTPFRGYRANQDVAVAGGHWWLNREVDGAPRPWPDAPADTYAALGHWGQALYVLPAQRLVIVRYGDDRDGSYQHNELLKRVLAAFATPEQP” the protein production was “failed”.

In the case of “MSFFNKIILIGRLVRDPEERYTLSGTPVTTFTIAVDRVPRKNAPDDAQTTDFFRIVTFGRLAEFARTYLTKGRLVLVEGEMRMRRWETPTGEKRVSPEVVANVVRFMDRKPAETVSETEEELEIPEEDFSSDTFSEDEPPF”, the protein production is reported as “not failed”.

With “MDGATLAEVMRQRGINMRYLGKVLDLVLRSPARDQLDHIYKIGIGELITRSAKHIFKTYLQGVELSGLSAAISHFLNCFLSSYPNPVAHLPADELLSKKRNKRRKNRPPGAADNTAWAVMTPQELWKNICHEAKNYFDFTLECDSVDQAVETYGLQKITLLREISLKTGIQILLKEYSFDSRHKPAFTEEDVLNIFPVVKHVNPKASDAFHFFQSGQAKVQQGFLKEGCELINEALNLFNNVYGAMHVEICACLRLLARLHYIMGDYAEALSNQQKAVLMSERVMGIEHPNTIQEYMHLALYCFASSQLSTALSLLYRARYLMLLVFGEDHPEMALLDNNIGLVLHGVMEYDLSLRFLENALAVTTKYHGPKALKVALSHHLVARVYESKAEFRSALQHEKEGYTIYKTQLGEDHEKTKESSEYLKCLTQQAVALQRTMNEIYRNGSSANIPPLKFTAPSMTSVLEQLNVINGILFIPLSQKDLENLKAEVARRHQLQEANRNRDKAEEQPMAPEPEPEPEPERAVEDMGSPQTAKEGPSSLNLQG” the protein production was “failed”.

With “MKKLGFVLFMSMFAFVSVVPAAEAKVIDHDKVQGFSEVTPVTVSQKAAKRFQPYLKVASGCVPFPAVDAQGNTSGGLEPTGAPEGHCSKSVGQVYSRSAWYNGVWAIMYAWYFPKDSPLPLKAFGHRHDWEGIVVWIDNPANQNPKVLSIAYSQHGKFQKTAPNNNIMEGDHPKIRYDAPQPPINHSLYVDSAKGGTQPLIGWEDLTPAARNALNTTDFGSANVPFNDHNFTNNLGKAWFR” the protein production was “failed”.

With “MLKLFAKYTSIGVLNTLIHWVVFGVCIYVAHTNQALANFAGFVVAVSFSFFANAKFTFKASTTTMRYMLYVGFMGTLSATVGWAADRCALPPMITLVTFSAISLVCGFVYSKFIVFRDAK” the protein production was “failed”.

With “RYSDAHLHYVDFFQESEGMPALIKAMDAAGVEQSMISGIPVAKKWHEDEPKRPRYYAGDDADAYWYSATDTYVAAALQQLPSDQRKRFHPFLSGFNPVDKNAVSHIERMLDLYPGLWQGIGEVFTRHDDLTALTSGDTPRANNEAMTRIYHLAAERDLPVLLHSNITSKRERNPLYLAEIEEPLRNHPHTRFIWAHAGSSMEIHRHQKQMDFLLPVLTRLLEDYPNLYVDLSWSVLQPYLLDEQGAPRKEWLALVEKYPERFMLGSDVVGRFGSLGEQMHGFKPFLDALPESVAHKVARENFLAVLPKAR” the protein production was “failed”.

For “MGIHLFWDSRVPVGLSRPVSEELSAVLEMPVSRIDDGIFPLEGFDPVRNQYDAVKVLLKLDMFRRRMPQIFKPADMDLEFYNKFNHLHEKILLVTPGDLYEPLADFVFGLAYPKLGVAIVSPHRLQNEFYGKYADDSALIDRIVKEGAHEIGHLFGLGHCDNPGCIMYCPRNLDELDRKRKYFCGKCRVQLNGDTLEDDLFSLEHHHHHH”, the protein production was “not failed”.

For “PAKRAFSNADQFVETMLPLAKEAAARIGVDPVMLVAQAALETGWGKSIMRQQDGSSSHNLFGIKAAGSWKGAEARAITSEFRDGKMVKETADFRSYDSYADSFHDLVSLLQNNNRYKDVVNSADKPEQFVKELQKAGYATDPAYASKISQIAKQMKS”, the protein production was “not failed”.

With “MTSTASSTDIRQGQAADEQWPSWQQRLRRFGYTAPPRTDVRDRLVPPFSEPSPRLWAAIGLRQEVADRVTRWSAWGGPLLVTLLAGLLRFWNLGSPKAVIFDETYYAKDAWALIHNGYEANWAKDANDLILQGNGHVAIPTDPAYVVHPPVGKYVIGLGEWLFGFTPFGWRFMTALLGTLSVLLLCRIGRRLFRSTFLGCLAGALMAVDGLHFVMSRTSLLDGVLMFFVLAAFGCLVVDRDRARARLAAALPADADGVVRPDAHTAETTRLGPRPWRWLAGLMLGLALGTKWNALYVMAAFCVMAVLWDVGSRRVAGARRPYAAVLRRDTGITFLATVPVAVATYLVSWTGWILSPANGSGGYFRNWAATDGKGGHWTWLPDWLRSLWHYEHEVYEFHVGLSSPHQYQSNPWSWLVAGRPVSYFYESPSPGKDGCPADAGEKCAREVLALGTPLLWWAACFAVLYVLWRWLFRRDWRAGAIACGIAAGWLPWMMYQERTIFYFYAVVFVPFLCLAVAMMIGAILGPPGSGERRRVVGAAGAGVLVLLIAWNFIYFWPLYTGTAIPIDDWRSRMWLDTWV” the protein production was “failed”.
